The assay has as its target L-19437_(D-Pep-1). Description: ITC; MicroCal PEAQ-ITC, 19 injections; peptide titrated over the binder (L-19437 15 uM, D-Pep-1 150 uM); PBS pH 7.4; One Set of Sites mode.

Square brackets hold non-standard residues; d marks the D form. Ends that are not written are not given here. * marks the point of attachment. Biotin = O=C1N[C@H]2[C@H](CS[C@H]2CCCCC(=O)*)N1

The text below walks through data of article PMC11614891.

B1: D-Pep-1 (peptide)
peptide: Biotin-[dD][dE][dH][dE][dL][dL][dE][dT][dA][dA][dR][dW][dF][dY][dE][dI][dA][dK][dR][dA]
The molecule B1 showed a Kd of 0.0487 µM and a stoichiometry N of 0.938 sites.

The term Kd denotes the free concentration of one partner at which half of the binding sites on the other are occupied at equilibrium, for simple one-to-one binding. Low readings indicate tighter binding, high ones weaker binding. Usually stoichiometry N stands for a count of units in the complex or per binding partner.
